Data reported in the supplement of paper PMC12455559.

test: purified protein yield per well (BCA); higher = higher soluble expression
Summary of the method: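 Candidate enzymes were made in 2 mL autoinduction cultures of E. coli C41(DE3) with 100 µg/mL kanamycin, at 37 °C for 2 h and then 18 °C for 40 h, and purified with Ni-charged magnetic beads and SUMO protease cleavage. The Pierce Rapid Gold BCA kit gave purified protein yield per well. Values lower than 25 ug (0.1 mg/mL) are below the detection threshold.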

Row | Sequence | purified protein yield per well [µg]
1 | MLRVTHHPPPGGTDSARTRTALPAPGAAPPRPGLPRRRGRLVTLAAAGIAAALVGLFTMTVATGTASAADNPYQRGPDPTRSSVASVNGPFANTSVAVPTGYGFNGGRIYYPTDTSQGTFGAVAISPGYNALFSAELAWMGPWLASHGFVVIGIETNSRNDFDTARGTQLLAALDYLVQQSPVRDRIDPNRLAVSGHSMGGGGALSAALRRSSLKAAVGIAPYSPSSNLANDRVPTMVFAGQADTVVTPSYATGLYNSLPVTTESAYLEVAGADHGFMVGRSNPVLIRTMLPFLKMFVDNDARYSQFLCPLADNNGVVSYRSTCPLLPSTPTTPPPTPSDTPPPTPSQTPTSSPTGNPPGTASLIVGAQSNRCLDVPNASRANGTRVQLWDCNRQANQSWTYTSGKQLRVYGDMCLDAAGSGNGAAVQIYGCHSQTNQQWNVNANGTISSVQSGRCLDVWSTANGAQVQLYDCHGQTNQRFTLTPLT [TEP176] | < 25
2 | MPGDALTDPWQNGRSDDGERGDTRRLHHIVRPVDLGGLSTEAEGHPLVLGFASDAGVRRNRGRPGAAEGPAAIRRMLSNLAAHELQTLLDAGDITCEGEALEAAQQACALALAKALSLGAFPVLLGGGHEIAVASFMGLRRYLDDQGDAGKVLVLNIDAHLDLRTSRPPSSGTPFDEIARYCEAHGHAWRYACIGVSKPSNTAALFARADEIGQAPTATNIYGNGSFSVASSSISPLVSGFGGGVVYYPTAPGLYPVVAVSPGFTATWSSISWIGPRLASWGFVVVGIETNTLLDQPSSRGQQLLAALNWAVSSSAPSAVRSRADGTRRGVAGHSMGGGGSLEALAMDTTGNVKAAVPIAPWNTDKTWNNVNEPVLIVGGQWDTVAPVATHSIPFYNTLAGPKAYVELNNATHFFPQFDDAMTSRALVAWFKRWLNNDTRFTPFTCGFSGLSISDFRSNAC [TEP180] | < 25
3 | MPRDGERKQKPEGARVRAYRAGPGSPPRPPRPVRLALLAVAFVTAAVAALFAVQPASAQPSAAAVTPNSTQRGPDPTIQSIEASRGTFATAQSSVAPGNGFNGGVIYYPTDTSQGTWGALAIVPGYTAKCANEEAWMGPWLASFGFVVICIETNSTTDFDVARGQELLAALNWLTTASPVRNEIDPNRLAVLGHSAGGAGAIEAAEQRPSLRAMIGLAPGFPGQGLSMLTDRVPTLVVGGQNDTVVTPSYLSGLYATMPASTQSAFAQIAGADHVYYTHANNVEMKLIIPWLKIFVDGDTRYEQFLCPTLPDPSTISIYQPKCPYVPPGGGSPSPSASASASASASASASASASASASASASASSSPSASASASASSSPSGVPAGGCAAVYQAVGSWPGGYQAQVTVTAGGAPITGWSVRWNLSSGQSISSLWNGSYTVSGSSVTVANASYNGTLAAGASTTFGFTANGAPSTPTLTCTGK [ESM145] | < 25
4 | MQVARDGSAFQSPPETSGGIRSWRPTGRLWQRGVAAVAAAATLGALTIALTAVQPAAGAENPYQRGPDPTPASVSANRGTFATAQVSVPAGNGFGGGVIYYPTDTSQGKFGAIAIVPGYTATWAAEGAWMGPWLASFGFVVIGIDTNTRNDWDNARGQQLLAALDYLTQRSSVRDRVDATRTAVMGHSMGGGGAAYASLQRPSLKTSIGLAPASFSQNLTTTKVPTMLLSGQNDTTVSPASVLSLYNGIPAGVEKAYLELSNVGHLFPTSNNPTMMRNIIPWFKIFIDSDTRYTQFLCPLSNTTGIRSYQSTCPLVPSTPPTTTTTTTTTSTTTTTDTTTTTTDTTTTTTDSTTSTTTTTPGSGPSCTAAYTVVNQWGGGFQAEVRVAAGSTPISGWTVTWAWANGQTVTQQWSATITSSGPNVTAVNVGYNGNLGAGAATTFGFIASVNGANTPPTLACAAR [ESM022] | < 25
5 | MRDGPKFGTATVYYPENAQAPYASLLIVTGFVHPESAMKAWGPFLASHGIVTLTIGTNKLKDDPFKRRDALLDAVRSLKAEHLRKDSPLWHKLALDRIGVAGWSMGGGGAQLAAAADPSLRAVIGFCPWLPKANFEHPVPSLIIAGTLDSIANVFLNARAHYAGISETTPKLIIEIPYGGHWIANDPANANGAIGQIGLSWLKVYLEGDTRYRQFLLTPPISGGYFRHNLE [TEP077] | < 25
6 | MREHEDAMSGGRMPSGARPPRLIGLAVAAIAAVVTMIAAMLAVGPVSAQPAPTAVTPHSTQRGPDPTLAMIEASRGPFATAQQGVAPGNGFNGGEIYYPTDTSQGTWGALVIIPGYTARCVNQPAPEEAWMGPWLSSFGFVVLCMETNSPNDFDTARGQEALAALNWLTTASPVRGEVDPNRLSVMGHSMGGGGVVYAVEHQPSLRAGIGLAPFSPSQNMAGDKVPTLILGGQNDSTVTPSYLSGLYATMPAATQSAFAQIAGAGHGFYTSPNNVMMKLAIPWLKVFVDSDNRYEQFLCPTLPDPSQISIYRSKCPYVPPGGGPTSTTTTPPPPAGACQAVYQPQNSWPGGFQGLVTVTAGSSPVSGWTVTWALSGGQAITQLWSGNLTTSGSAVTVKNASYNGSLAAGASATFGFTATGAASTPTLTCTSP [ESM146] | < 25
7 | MRRSLPPSAEAGTAVGGAGPGRPARPVLPLAAVALTLVAAVTAALLAIRPATTDAKSSQRGPDPTLAGVAAATGPFTTAQVSVPPGDGFNGGTIYYPADTSRGTWAAVAISPGYTALFADEEAWMGPRLASFGFVVIGIETDSRTDYDSQRGTQLLAALDYLTTQSPVRNRVDPRRLGVIGHSMGGGGVVYAAENRPSLKAAVALAPYSPTQDMSTDTVPTMVIDGQNDTVVTPAAVDALYATLPASTRSAFMQIDGADHAYYTHPNPVEMRVLIPWLKIFLDNDTRYTRFLCPSPADPSGVSSYHSRCP [TEP071] | < 25
8 | MRSDCSPPWRWWPGAALAPAANAAAPAHPVRLAANPYERGPAPTEASITAEKGPFAIERIDVPAGSGPGFNKGTIYAPTDLSQGTFGAIAVSPGFVSPQAWIDWYGPRLATQGFVVMTLETNSLFDVPAARGEQLLAALDYMTGGSRVKDRIDASRLAVMGHSMGGGGTLEAADDRPALQAAVPLAPWNTNYDWKNVRVPTMIMGADNDAIAPADSMAESYYDNLTSVPEKAYLELKNAGHMTFNSPNTTIAKYTIAWMKRFVDDDARYERFLCPEPAPGATIAQYEGTCPTG [TEP141] | < 25
9 | MRSDMTPEPEGTVAKAGWARSQPRPATRAVMAVAAVLALLAGLLAIGQASARSAPSAASPATTQRGPDPTVGMIEATRGPFATAQVAMPTGHGFGGGMIYYPTDTSQGTWGVLAIVPGYSALFADEEAWMGPWLSSFGFVVVGVETNTRTDSDSQRAADLLAALDYLTTQSPVRTQVDPARMAVLGHSAGGAGAIEAAEQRPSLRALIGLAPGFPGQGLSMAADTVPALIIGGQNDGTVTPSYLSSLYGTLPASTQSAFAQIAGADHVYYTHPNNVEMKLIIPWLKVFVDSDTRYTQFLCPSLPDPSTISAYQPKCPYIPPGGSSSPSSSSSSSSAPPPNSAPLHAVGAAKCLDVPNSSTTAGTQLQIYTCSNGANQLITHTGSNQLTVYSSTMCLDANNKGTTNGTKVIIWPCNGQSNQQWNLNPNGTITSAASGLCLDVTGASTANGALVQLWTCNGGSNQQWHLG [TEP169] | < 25
10 | MRSSVTQVPACKGAETSEARPRTGSRPVGLRAVVVAVVAGLIAALVSAQPVSARPAPARPGAAQDNPYERGPDPTVGSVAAQRGTFATAEMNVSPGNGFNGGKIYYPTDTSQGTWGAVAAVPGFTARWAAEGAWMGHWLASFGFVVIGIDTNSPNDYDTARGTQLLAALDYLTQKSPVRDRVDPDRLGVIGHSMGGGGAISAAVRRPSLKAAVPLAPFSPSQDLSTLRVPTMIMGARDDGTVTPSYLDGLYARTPAATQSAFIELTSGGHGFPTWGNSHVTRRMIPWLKIFIDNDTRYTQFLCPSPADRSNISRWQTKCPYVPPGGTTPPPSGGQVVGAGSARCLDVPSQTNGTQVRLWDCLDRAGQKWTRTEAAELRVHGGKCLDAEASGTSPGTRVVIWDCHGGQNQRWNIGTNGTITSTRSGLCLDAYNSGTANGTQVVLWNCNGGANQRWTFR [DP042] | < 25
11 | MRSTSTTPTASSVSGAGAFAISSATVGGGNGFGSATIYFPTDTSQGTFGGLAVSPGFTETQSALRWWAQRLATHGFVVINISTNSTFDNPSSRATQLQNALNYLVNTSSVRTRVDRTRLGVSGHSMGGGGTLEAARNNTALQAAIPLMPWDQTKSFPGILTPTMIVAGQNDTVARPSSHAIPFYNSIPDSSEKVYLELAGAGHNASNSTNPTISLFGVSWAKRYIDNGTRYEQFICPGGGSGISSYRQT [ESM152] | < 25
12 | MSATRGTFATAQLSVPAGNGFGGGVIYYPTDTSQGTFGGVAIVPGYSALFANEEAWMGPWLASFGFVVIGIETNSRTDGADARATQLLAALDYLTQRSSVRDRVDSSRLSVVGHSAGGAGVILATGQRPSLKAAVGLAPGSPTGNLSLANDRVPMMFISGQRDTTVTQSYLNGLYTTLPASTPSAWVEITGVDHLFATRANTTEMRTLIPWLKIFVDNDTRYTQFLCPLMDSSNISMYRNKCPYVPPGGPSPSPSPSPSPSPSPSPSPSPSPSPSPSPSPSPSPSPSPSPSAGACTASYRTTNSWPGGHQGEVTVTAGGSAISGWTVRWTLGSGQTVSQVWNGTLSVSGSTVTVTNASYNGSLPASGSTTFGFLGTGTASAPSLTCTSRP [ESM002] | < 25
13 | MSGFGGGTIYYPSGTTGTMAAIVVIPGYVSSQSSIEWWGPRLASNGFVVMTIDTNATTDQPPARARQINAALDYLIAQNRASGSPVNGMIDTSRLGVVGWSMGGGGTLRVASEGRIKAAIPLAPWDTTTFRNVKAPTLIFACESDTIAPVRNHASPFYNQVPTSIPKAFVQLNRGNHYCANGGNAFNADLSRLGVSWMKRFLDNDRRFSQFLCGPNHTSDRDISEYRGNCPY [TEP104] | < 25
14 | MTVPPGNGFNGGKIYYPTDTSLGTWAAVAAVPGYTARWDAEGAWMGPWLASFGFVVIGIDTNSPTDYDTARGTQLLAALDYLTQKSPVRDRVDPNRLGVLGHSMGGGGAISAAERRPSLKAALPLAPFSPSQNLSSLRVPTMIMGARDDGTVTPSYLNGLYGSMPTATQSAYIELTSGGHGFPTWGNSNVTRRTIPWLKIFLDNDTRYTQFLCPSLADSSGISRSQTKCPYVPPGGTTTPPSGGQIVGAGSGRCLDVPNASQTNGAQVQLWDCSGNVNQKWARTDAGELRVYGSKCLDAEGSGTSPGTRVIVWDCHGGQNQRWNVNTNGTITSVGSGLCLDTNGGGTGNGAQTVLGNCNGAPTQRWTVR [ESM105] | < 25
15 | MVSGTATATPAATAAHPVRAAANPYERGPAPTVASVEAPLGPYAVSRITVARSSVSGFGGGTVHYPTSTADGTFGAVAVSPGFTGTQSSIAWYGPRLASQGFVVLTIDTLTGLDQPASRGRQLLAALDYLTGESAVRGRIDRTRLGVMGHSMGGGGSLEAAKSRTSLKAAIPLTGWNLDTTWPEVRTPTLVVGADGDTVAPVAAHSEPFYASLPGTLDKAYLELKGAVHRTPITANTTIAKYSVSWLKRFIDNDTRYERFLCPLPAPGPTIAEYRGNCPHT [TEP118] | < 25
16 | MVSYSPRYKAVAFTVAAGLVGGGLAGLAPNRHERGPDPTRALLEAPRGPLATARTVVPRAEAAGYGGGTIYHPAEMRTGETYGAVAIIPGRNGPQSGMSWYGPRLASHGFIVFTIDALRPLDRPPARGAQLQAALQQLAVRSPVATHVDAGRLAVMGHSLGGAGALEAAKARPGLRAAIPLTPSDVAGPDFSGVRVPTLILAAEKDTVAPLGRHARKFYRAIPRGTEKAYVELAGATHGFPKLPHPTVARYTIAWLKRWVDGDRRYDRVLCPSGRREPAVSFQRDTCPHD [TEP187] | < 25
